The chains are these.
B1: TβRII-YFP (receptor, UniProt P37173 23-567, looked up)
chain: TIPPHVQKSVNNDMIVTDNNGAVKFPQLCKFCDVRFSTCDNQKSCMSNCSITSICEKPQEVCVAVWRKNDENITLETVCHDPKLPYHDFILEDAASPKCIMKEKKKPGETFFMCSCSSDECNDNIIFSEEYNTSNPDLLLVIFQVTGISLLPPLGVAISVIIIFYCYRVNRQQKLSSTWETGKTRKLMEFSEHCAIILEDDRSDISSTCANNINHNTELLPIELDTLVGKGRFAEVYKAKLKQNTSEQFETVAVKIFPYEEYASWKTEKDIFSDINLKHENILQFLTAEERKTELGKQYWLITAFHAKGNLQEYLTRHVISWEDLRKLGSSLARGIAHLHSDHTPCGRPKMPIVHRDLKSSNILVKNDLTCCLCDFGLSLRLDPTLSVDDLANSGQVGTARYMAPEVLESRMNLENVESFKQTDVYSMALVLWEMTSRCNAVGEVKDYEPPFGSKVREHPCVESMKDNVLRDRGRPEIPSFWLNHQGIQMVCETLTECWDHDPEARLTAQCVAERFSELEHLDRLSGRSCSEEKIPEDGSLNTTK
notes: TGFβ receptor type II; also called TβRII-yellow fluorescent protein fusion; source: HEK293T, transfected, in intact cells
B2: TβRI-Renilla luciferase 8 (Rluc8) fusion protein (receptor, UniProt P36897 34-503, looked up)
chain: LQCFCHLCTKDNFTCVTDGLCFVSVTETTDKVIHNSMCIAEIDLIPRDRPFVCAPSSKTGSVTTTYCCNQDHCNKIELPTTVKSSPGLGPVELAAVIAGPVCFVCISLMLMVYICHNRTVIHHRVPNEEDPSLDRPFISEGTTLKDLIYDMTTSGSGSGLPLLVQRTIARTIVLQESIGKGRFGEVWRGKWRGEEVAVKIFSSREERSWFREAEIYQTVMLRHENILGFIAADNKDNGTWTQLWLVSDYHEHGSLFDYLNRYTVTVEGMIKLALSTASGLAHLHMEIVGTQGKPAIAHRDLKSKNILVKKNGTCCIADLGLAVRHDSATDTIDIAPNHRVGTKRYMAPEVLDDSINMKHFESFKRADIYAMGLVFWEIARRCSIGGIHEDYQLPYYDLVPSDPSVEEMRKVVCEQKLRPNIPNRWQSCEALRVMAKIMRECWYANGAARLTALRIKKTLSQLSQQEGIKM
notes: TGFβ receptor type I; In the homomer BRET row the second copy of TβRI carried YFP (TβRI-YFP) instead of Rluc8; also called TβRI-Rluc8; source: HEK293T, transfected, in intact cells
B3: GPR50Δ4-YFP (receptor, human, UniProt Q13585 1-617, looked up)
chain: MGPTLAVPTPYGCIGCKLPQPEYPPALIIFMFCAMVITIVVDLIGNSMVILAVTKNKKLRNSGNIFVVSLSVADMLVAIYPYPLMLHAMSIGGWDLSQLQCQMVGFITGLSVVGSIFNIVAIAINRYCYICHSLQYERIFSVRNTCIYLVITWIMTVLAVLPNMYIGTIEYDPRTYTCIFNYLNNPVFTVTIVCIHFVLPLLIVGFCYVRIWTKVLAARDPAGQNPDNQLAEVRNFLTMFVIFLLFAVCWCPINVLTVLVAVSPKEMAGKIPNWLYLAAYFIAYFNSCLNAVIYGLLNENFRREYWTIFHAMRHPIIFFSGLISDIREMQEARTLARARAHARDQAREQDRAHACPAVEETPMNVRNVPLPGDAAAGHPDRASGHPKPHSRSSSAYRKSASTHHKSVFSHSKAASGHLKPVSGHSKPASGHPKSATVYPKPASVHFKADSVHFKGDSVHFKPDSVHFKPASSNPKPITGHHVSAGSHSKSAFSAATSHPKPIKPATSHAEPTTADYPKPATTSHPKPTAADNPELSASHCPEIPAIAHPVSDDSDLPESASSPAAGPTKPAASQLESDTIADLPDPTVVTTSTNDYHDVVVIDVEDDPDEMAV
notes: also called GPR50-YFP; source: HEK293T, transfected, in intact cells

The target in series [1] is B2. Briefly: FRET or BRET; BRET donor saturation in intact HEK293T cells; fixed amount of TβRI-Rluc8, increasing amounts of YFP fusion; no TGFβ. Particulars: partners not purified.
Series [2] deals with the molecule itself. The description is as above.

In the case of B1, in series [1], the BRET50 worked out at 0.046 ± 0.008. Molecule B2 returned a BRET50 in series [2] of 1.34 ± 0.185. Regarding B3, the BRET50 in series [1] is 0.031 ± 0.01.

For the origin of these results see PMC5865211, “The orphan GPR50 receptor promotes constitutive TGFβ receptor signaling and protects against cancer development” (Nature Communications, 2018).
